# Measured values: IntAct's records for PubMed 21957239
# B1: Sodium-dependent dopamine transporter (Homo sapiens), Q01959 (parent)
# chain: MSKSKCSVGLMSSVVAPAKEPNAVGPKEVELILVKEQNGVQLTSSTLTNPRQSPVEAQDRETWGKKIDFLLSVIGFAVDLANVWRFPYLCYKNGGGAFLVPYLLFMVIAGMPLFYMELALGQFNREGAAGVWKICPILKGVGFTVILISLYVGFFYNVIIAWALHYLFSSFTTELPWIHCNNSWNSPNCSDAHPGDSSGDSSGLNDTFGTTPAAEYFERGVLHLHQSHGIDDLGPPRWQLTACLVLVIVLLYFSLWKGVKTSGKVVWITATMPYVVLTALLLRGVTLPGAIDGIRAYLSVDFYRLCEASVWIDAATQVCFSLGVGFGVLIAFSSYNKFTNNCYRDAIVTTSINSLTSFSSGFVVFSFLGYMAQKHSVPIGDVAKDGPGLIFIIYPEAIATLPLSSAWAVVFFIMLLTLGIDSAMGGMESVITGLIDEFQLLHRHRELFTLFIVLATFLLSLFCVTNGGIYVFTLLDHFAAGTSILFGVLIEAIGVAWFYGVGQFSDDIQQMTGQRPSLYWRLCWKLVSPCFLLFVVVVSIVTFRPPHYGAYIFPDWANALGWVIATSSMAMVPIYAAYKFCSLPGSFREKLAYAIAPEKDRELVDRGEVRQFTLRHWLKV
# partner: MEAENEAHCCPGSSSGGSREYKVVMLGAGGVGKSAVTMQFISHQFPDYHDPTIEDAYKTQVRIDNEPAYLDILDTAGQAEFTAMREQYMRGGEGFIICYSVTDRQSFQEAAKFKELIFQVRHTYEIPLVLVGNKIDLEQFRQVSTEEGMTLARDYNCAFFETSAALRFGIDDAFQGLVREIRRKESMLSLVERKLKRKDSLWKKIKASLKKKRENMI
# Variants of: B1
# Details: with rit2_rat Rit2, Q5BJQ5
row,Variant,effect of a mutation on the interaction
1,F587A;R588A;E589A;K590A,increasing interaction strength
